The assay deals with MP81, in vitro-synthesized, [35S]-labeled (T. brucei). Briefly: co-IP.

Regarding “TbTUT4-MD (TbTUT4 TUTase with grafted RET2 middle domain), in vitro-synthesized, [35S]-labeled (from UniProt Q381M1;Q86MV5)”, the fold increase of immunoprecipitation on addition of MP81 was 2 fold.

The values are drawn from paper PMC2885523.
